Measured values taken from the DeepSol protein solubility set.

Assay: soluble on expression in E. coli; label from the status in PepcDB or PDB records

| Sequence | soluble on expression in E. coli |
| --- | --- |
| MLSARTMKEVVYWSPKKVADWLLENAMPEYCEPLEHFTGQDLINLTQEDFKKPPLYRVSSDNGQRLLDMIETLKMEHHMEAHKN | soluble |
| MHKDIKIVDASAIVKPTGTPYVVYFSSISNNTHRFIEKLEFEHTRIPVNLDEQIEVNQEYVLFCPTYSGGGEYTSGAVPKQVIHFLNNKHNRDLCRGVISSGNTNFGNTFAIAGPILSKKLNVPLLYQFELLGTKNDVEQVQTIITNFFGKAK | soluble |
| MTTKLQKRVNDLDEDIPRPPFSSHSDKTEDKEGVSEACPVCEKTVQNPCVLETGYVACYPCAISYLVNNEGHCPVTNKKLLGCTYNKHTNKWEVVTGIRKLLI | not soluble |
| MSLKSKVLVIDDEPDIRELLTLTLSRMGLICDAVSDFKQGIEHIKQNYYSLVLTDMRLPDGDGIEIVKFIQKYKPQLPVAVITAYGNVEGAVNTLKAGAFDYVSKPVDLKMLRELVKTALSMQNPSTESPDEGLLVGESLIMQQLRESIHKLARSQAPVFIQGDSGVGKELVAQLIHANGPRKDKPFIPVNCGAIPGELMESEFFGHKKGSFTGAISDKTGLFVAAHGGTLFLDEIAELPLAMQVKLLRAIQEKAIKPIGELYEIPVDVRILSASHKNLIEEINAGRFRQDLYYRINVIELRVPTLMERLSDIPCLTEAILKKLSKNQNRNLVKINPSCFEILSRYHFPGNVRELENILERAMAMCEGEVIEPSEGHHHHHH | soluble |
| MAKVTVILTSYNKPNTVGAAIESVLSQSFQDWELWIMDDASNEETQQVIDSYMLYPNVYYYNSQVKDEERHKSTRYATLINEAISRSTGDYLCYLTDDNYYLPERLQKMVQYLERYPSVDVVYSKQLVRTVDNQLITQAERIRPTKGTIRYAENIVDHCSVMHRRSLAEKVYETYGSYWNDDPICWHNGDAFFWNRLSAFALFYPINEVLDVCLKSPTSFQALNAFLPEYLPSGTLVKGLGADVYLIEDNHRRAITPTMFQQLHYREENVVHIPDPVLFKYKEGPAIDEHIWEQGKLFPNHRLIKASQEPHIYYVENHRKRHILTHKEFRLYKFRASEVVEVSRSFLDSIPTGPPISAHVNNQHPLPEGLLVRCGFKFYLSGNNRLYPIKSRVMKKLNLQMKNAVFLDSRAIGRYEQGETIEWKTNKCQPRFNTSSLEHHHHHH | not soluble |
| MSLTTFATEWEKQLELYPEEYRKAYRRVKRASEILLREPEPQVGLTPKEVIWTKNKTKLYRYIPKQEKTQRVPILLIYALINKPYIMDLTPGNSLVEYLVDRGFDVYMLDWGTFGLEDSHLKFDDFVFDYIAKAVKKVMRTAKSDEEGHHHHHH | not soluble |
| MSLYVKMMEMGRMIDNCLYCGSATLLSIIHLANGKNAVTCGKCGLTRTIPVPSAEYSEVAEYFENYLLKEKLFRAFSRKLLDFVLSVVQNGRLLEVGCSVGFFLEEAKRAGFSVNGVELNEKAATLSKGKDFDVRNCMLREAGFPSHEFDVVVMSHVLEHIQDLREFLADIKVLLRPGGKVIVSQPTPDGIVPKMQKKKWYGWVPNEHVWHFTPKTLSLVFAENGFDVVKVERNSMYYSLWPSSLRGILVALVARTAAVLGLGDQFYLAATVSEKDSEGHHHHHH | not soluble |
| NSSAQLLELCTEHGLSISSLMMANELSLASEEEVKAKLWNIWQTMKTCIERGYQKEGILPGGLKLRRRAPALYRRLKAEGRNNVDPLTAMDWVDLFALSVNEQNAAGDRVVTAPTNGAAGIIPAVLCYYDTFVQEVDIDVCARYLLTAAAIGILYKKNASISGAEVGCQGEVGVACSMAAGALTEIMGGTVEHVENAAEIGMEHNLGLTCDPVGGLVQVPCIERNAMGAIKAINASRMALRGDGNHKVSLDKVIKTMMDTGKDMRSKYKETAKGGLAVN | not soluble |
| MGSDKIHHHHHHMSSVHHKIIKHKIGLLNLAAELGNVSRACKVMGFSRDTFYRYQAAVETGGVEALIDANRRKPNIKNRVEEATEAAILAFALEQPAFGQVRVSNELRKRGIFVSPSGVRSVWLRQNLESFKKRLSALEKHIAETGAVLTEAQVQALEKKQEDDVAQGEIETAHPGYLGSQDTFYVGTLKGVGRIYQQTFVDTYSKWAAAKLYTNKTPITSADMLNDRVLPFFAEQSMGIIRILTDRGTEYCGKPENHDYQLYLALNDIEHSKTKANHPQTNGICERFHKTILQEFYQVTFRRKIYQSIEELQHDLDDWMAYYNSVRTHQGKMCCGRTPMQTLIDAKEIWDDKITELNN | not soluble |
| MSLYSTPLKKRIDYDRETFTASASLGGNRLRNRPRDDQNNGKPNLSSRSFLSERKTRKDVLNKYGEAGNTIESELRDVTTHVKISGLTSSEPLQLASEFVQDLSFRDRNTPILDNPDYYSKGLDYNFSDEVGGLGAFTPFQRQQVTNIPDEVLSQVSNTEIKSDMGIFLELNYCWITSDNKLILWNINNSSEYHCIDEIEHTILKVKLVKPSPNTFVSSVENLLIVATLFDIYILTISFNDRTHELNIFNTGLKVNVTGFNVSNIISYERTGQIFFTGATDGVNVWELQYNCSENLFNSKSNKICLTKSNLANLLPTKLIPSIPGGKLIQKVLEGDAGTEEETISQLEVDQSRGVLHTLSTKSIVRSYLITSNGLVGPVLIDAAHIRRGMNALGVKNSPLLSNRAFKIAKIVSISMCENNDLFLAVITTTGVRLYFKGSISRRSIGSLKLDSVKFPPTSISSSLEQNKSFIIGHHPLNTHDTGPLSTQKASSTYINTTCASTIISPGIYFTCVRKRANSGELSKGITNKALLENKEEHKLYVSAPDYGILKNYGKEGHHHHHH | soluble |
| GHMLDVAPPVITPRGTKIEPSAGAPFEAVRVARDVLHTSRTAALATLDPVSGYPYTTATNIGIEPDGTPFFFAAGLTLHARNMETDARISVTLAPFGKGDALTLPRLTLVGRADRIGPDEVPLAIARYIARYPKAKLYLSLPDTRLYRLRTEGVQINGGPARNASNITPADLRTDLSGAEELMAAAESEATRLNAIKGEASRLAVLAGAKTGRWKITSIDPDGIDLASASDLARLWFAERVETLKQFEKALAQLLKGS | soluble |
| MKAKDVKLLARYLEMLKDPNIIKTQDVFTVIRYISYNSYGKTMAWNWIQLNWDYLVSRFTINDRYLGRIVTIAEPFNTELQLWQMQSFFAKYPNAGAGAKPREQVLETVKNNIEWLNVNRQSIREWFASLP | not soluble |
| GQSRERLVKWLQDAYAMEKEAETMMAAMASRIEHYPELKRRIEQHVEETQQQSAGVQRCLELLNGSIPTAKGMLSSVLASMHAAGNSMMTDEVTKGVGISYAFEHLEIASYRALVVAARSAGEQEVAQICEDILQQEIEMAEWLIEHQEAIVVAFLEREQLEGVGS | soluble |
| MSLWKSMTYYQKMIQEPSREKLLPDPLKYPYVQPPYTLVLEMKDVLVHPDWTYQTGWRFKKRPGVDKFLETLAANYEIVVFTADQGMTVFPILDALDPRGYIMYRLVRDATHFVDGHHVKNLDNLNRDLSKVIVVDWDPNSTKLHPENTLNIPRWTGNDDDAGLFDLMAMLVTIATSEVEDVRDVMTYYKSFENPLVKFRENQRLLAEQMAEREHEEKQRNLPAVQRWRPSFLEGHHHHHH | soluble |
| MPDEATKGSATIPPSSSTPFWWREKRSPKVQYHRSAYPRSRSSDADCRQGNEGMNFIAKHFFEYQSFMNIPHKAVHLHKVPASQAGTDPSMGWAPKNMLKAGKHQPAPGARANRVHRDPRPNGTKYGRAGKHEHREWGDRHGELRDEKVACHKDAWTKFLANDDQGARTAFECDFEDRVLATEEETLQEKLCRTSPEAMNLNALYAAANKAVSCGGDVCELLTILTYAPTVQFVTTTVKKAKALPYNNAPFARIMLFEGRRLMEQKQTTVNPSLVHKSSVDGSKPSSSSASTSSNDNPSDVSFSESFLFHVPPTKLDRSHIVIELYDHDDEGGLQKIGHCVIGRLVDGTGNAHWIQMVRQHGLPVCMWHKIGHN | not soluble |
| MCMASKVLNKVMGIIGLNDEDFDEYEDEVMEEKAIARENSYDYDEKLNDKNSSNSNNKVVNIHTASSVKVVIVKPKDYDEATQIDDLKNRKIVVVNVTDLEPKTAQRLLDFMGGASYVLNGELLEIDKGVYLLSPSNVDISRDLKNDLASKSIFNWSKLEHHHHHH | not soluble |
| MDYEKTLLMPKTDFPMRGGLPNKEPQIQEKWDAEDQYHKALEKNKGNETFILHDGPPYANGNLHMGHALNKILKDFIVRYKTMQGFYAPYVPGWDTHGLPIEQALTKKGVDRKKMSTAEFREKCKEFALEQIELQKKDFRRLGVRGDFNDPYITLKPEYEAAQIRIFGEMADKGLIYKGKKPVYWSPSSESSLAEAEIEYHDKRSASIYVAFNVKDDKGVVDADAKFIIWTTTPWTIPSNVAITVHPELKYGQYNVNGEKYIIAEALSDAVAEALDWDKASIKLEKEYTGKELEWVVAQHPFLDRESLVINGDHVTTDAGTGCVHTAPGHGEDDYIVGQQYELPVISPIDDKGVFTEEGGQFEGMFYDKANKAVTDLLTEKGALLKLDFITHSYPHDWRTKKPVIFRATPQWFASISKVRQDILDAIENTNFKVNWGKTRIYNMVRDRGEWVISRQRVWGVPLPVFYAENGEIIMTKETVNHVADLFAEHGSNIWFEREAKDLLPEGFTHPGSPNGTFTKETDIMDVWFDSGSSHRGVLETRPELSFPADMYLEGSDQYRGWFNSSITTSVATRGVSPYKFLLSHGFVMDGEGKKMSKSLGNVIVPDQVVKQKGADIARLWVSSTDYLADVRISDEILKQTSDDYRKIRNTLRFMLGNINDFNPDTDSIPESELLEVDRYLLNRLREFTASTINNYENFDYLNIYQEVQNFINVELSNFYLDYGKDILYIEQRDSHIRRSMQTVLYQILVDMTKLLAPILVHTAEEVWSHTPHVKEESVHLADMPKVVEVDQALLDKWRTFMNLRDDVNRALETARNEKVIGKSLEAKVTIASNDKFNASEFLTSFDALHQLFIVSQVKVVDKLDDQATAYEHGDIVIEHADGEKCERCWNYSEDLGAVDELTHLCPRCQQVVKSLV | soluble |
| TSDDHVPVDITDLLDRAAHDAARIYPDLDVSLVPSPTCIIVGLPAGLRLAVDNAIANAVKHGGATLVQLSAVSSRAGVEIAIDDNGSGVPEGERQVVFERFSRGSTASHSGSGLGLALVAQQAQLHGGTASLENSPLGGARLVLRLPGPS | soluble |
| MSLHLSKGFSNMIGVVLPTVNLPYFAELIAGIADAAAESGVHLSLFQTNYEVQKEIFALSQLKQRQVDGLIFCSKALADEKLMEWEGPILLCQNSDNARFPTISIPHQEAFRNGLDYLIAKGHKKIAICLARKKGMNSHFRIKAYKEALEEIGEAFREDWVIEKAITINDGKALFHKWNTWKEKPTAIFVANDQVSAGLFLEAKNQRVSVPDELAILSVDNHEISQALGITTIDIQTREMGKQAFAILEKRIQGQPIERKVLDYRLIERSTVEGHHHHHH | soluble |
| MDGEELREDLKEKGKTMDNDLKKSLKEAPSESYCYVLINPYVLDKDVREVDLATFLSSIFYVGKGKGERAMAYFKDACGNIQGSRKLTTIDQAWNKKGFVYKHIIWRPIIENLALAREAAMIFFFKNLAGKSNFTNKYNGSFKGESAFWSREEKCNYGVYLLETIHRSIQTNGCETVKKEDVAPRAAIQQSPRL | not soluble |
| MAHHHHHHMGSLVMGRCRRGAEETFEFREEYALLDAPIANAEHIPLRLRPQERKIQRLMRGVILASSYTDKVDSASALKLKNRELLVVKELTNALTGLIVGLDMRKAASFMRDHEFTPYQHEIRAAIEMCRRYKMMNPDLLRTDYVKFLYMIQDAVQSDMAREALGFNVVKELVTVGRYCETHNMQDILQDTRLPHCITPVPVMKDRNMLNRCLRGKDAVVGKLVKQYASEHRMHEDNVEVVVRSLNDANCFSNDNVETSERLLELLKQYFTPISCTELTSLAIDEGADGSRLTHNHKMQYIFVLQSLSLWKNMCRKMYMLWSLAEEDMLNPNEKYELRMTGQGLQRVQKAPQLFKAIQQVLQETKEELGEWVGSERIHLGDDQVPNAFHFIDKYGQVSRIIIPILRTLGHIDQLERHADHAAYLREVWGGGEQAKRAILRDFFRHGFDGSGGDNMDDAGSCIDGRLTSAWNWCNNIRFKEFYPLFLFSGFSSFDGDMGL | soluble |
